Source: paper doi:10.1101/2024.07.25.605091
Read-outs that look alike come from different tables or passages of the source. Each block holds one molecule with its values, some of them ahead of it.

Legend:
[1] = target: Macaca mulatta TLR7 extracellular domain (Macaca mulatta); experiment: cryo-EM structure
[2] = target: Macaca mulatta TLR7 extracellular domain (Macaca mulatta); experiment: cryo-EM structure; remark: listed apart in the source
[3] = target: T1, TLR8 extracellular domain (Homo sapiens, UniProt Q9NR97 27-827); experiment: SPR
T1 sequence: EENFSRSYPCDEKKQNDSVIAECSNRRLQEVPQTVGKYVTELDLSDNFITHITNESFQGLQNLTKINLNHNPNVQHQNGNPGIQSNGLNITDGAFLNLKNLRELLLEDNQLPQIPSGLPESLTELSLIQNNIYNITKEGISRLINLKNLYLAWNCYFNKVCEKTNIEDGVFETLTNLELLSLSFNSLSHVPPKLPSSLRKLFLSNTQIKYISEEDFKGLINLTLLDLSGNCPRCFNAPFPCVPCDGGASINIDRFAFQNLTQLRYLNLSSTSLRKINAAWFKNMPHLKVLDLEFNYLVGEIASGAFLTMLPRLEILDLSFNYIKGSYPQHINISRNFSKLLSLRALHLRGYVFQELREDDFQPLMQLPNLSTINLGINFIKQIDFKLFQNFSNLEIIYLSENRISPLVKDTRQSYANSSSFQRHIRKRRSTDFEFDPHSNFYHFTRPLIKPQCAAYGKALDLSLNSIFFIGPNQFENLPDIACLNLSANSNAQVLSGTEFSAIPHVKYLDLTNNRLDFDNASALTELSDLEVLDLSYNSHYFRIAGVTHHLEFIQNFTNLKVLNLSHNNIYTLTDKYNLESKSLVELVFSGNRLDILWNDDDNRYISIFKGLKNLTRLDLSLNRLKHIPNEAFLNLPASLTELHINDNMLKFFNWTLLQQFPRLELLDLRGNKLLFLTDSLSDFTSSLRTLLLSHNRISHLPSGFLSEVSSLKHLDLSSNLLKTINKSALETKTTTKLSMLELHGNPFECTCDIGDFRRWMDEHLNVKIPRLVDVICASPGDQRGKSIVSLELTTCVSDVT

[4] = target: T1, TLR8 extracellular domain; experiment: SPR; remark: listed apart in the source

stoichiometry N [1]: 2
stoichiometry N [2]: 2
Molecule: Macaca mulatta TLR7 extracellular domain (receptor)

Molecule: GAG (XNA, 2'-OMe at G1 and A2; DNA G3; phosphorothioate linkages, stereorandom) [GAG-v1 (mGmAdG)]
Kd [3]: 4 µM

Molecule: GCC (XNA, 2'-OMe at G1; DNA C2 and C3; phosphorothioate linkages, stereorandom) [GCC-v4 (mGdCdC)]
Kd [4]: 8 µM
